These results are taken from patent publication US7220569.

For series [1], the system named is recombinant Factor X (rFX) from highly expressing CHO-rFX clones.
Series [2] deals with Factor X analogue with the FXIa cleavage site Asp-Phe-Thr-Arg/Val (rFX^DFTR/V).
Series [3] deals with rFactor X from furin deficient CHO-FD11 cells (CHO-FD11-rFX).
Sequence of rFactor X from furin deficient CHO-FD11 cells (CHO-FD11-rFX) (chain, as listed by the source): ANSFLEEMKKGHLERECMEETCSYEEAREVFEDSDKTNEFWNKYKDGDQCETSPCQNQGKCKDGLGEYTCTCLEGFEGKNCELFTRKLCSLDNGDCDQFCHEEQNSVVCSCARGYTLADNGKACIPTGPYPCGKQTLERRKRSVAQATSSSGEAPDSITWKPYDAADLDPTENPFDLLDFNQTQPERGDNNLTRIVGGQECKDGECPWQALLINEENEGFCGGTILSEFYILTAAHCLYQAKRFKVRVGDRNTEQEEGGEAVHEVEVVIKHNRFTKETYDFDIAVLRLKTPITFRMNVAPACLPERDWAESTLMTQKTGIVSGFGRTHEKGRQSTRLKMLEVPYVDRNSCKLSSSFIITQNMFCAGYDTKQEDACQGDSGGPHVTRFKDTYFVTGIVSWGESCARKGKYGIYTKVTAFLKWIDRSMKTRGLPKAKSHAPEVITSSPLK

Sequence of recombinant Factor X (rFX) from highly expressing CHO-rFX clones (chain, as listed by the source): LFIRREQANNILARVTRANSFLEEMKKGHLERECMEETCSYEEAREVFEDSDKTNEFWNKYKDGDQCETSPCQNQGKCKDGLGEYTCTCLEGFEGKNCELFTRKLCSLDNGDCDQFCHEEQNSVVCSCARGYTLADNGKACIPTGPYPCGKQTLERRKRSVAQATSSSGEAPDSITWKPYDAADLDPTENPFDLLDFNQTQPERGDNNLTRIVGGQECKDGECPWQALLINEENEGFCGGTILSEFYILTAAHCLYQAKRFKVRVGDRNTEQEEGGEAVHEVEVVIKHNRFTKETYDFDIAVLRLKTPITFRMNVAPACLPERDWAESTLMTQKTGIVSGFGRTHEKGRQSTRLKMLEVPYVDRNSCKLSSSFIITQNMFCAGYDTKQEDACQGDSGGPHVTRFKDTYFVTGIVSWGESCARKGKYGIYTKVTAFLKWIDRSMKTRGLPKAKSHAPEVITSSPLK
Sequence of Factor X analogue with the FXIa cleavage site Asp-Phe-Thr-Arg/Val (rFX^DFTR/V) (chain, as listed by the source, chain 1 of 2): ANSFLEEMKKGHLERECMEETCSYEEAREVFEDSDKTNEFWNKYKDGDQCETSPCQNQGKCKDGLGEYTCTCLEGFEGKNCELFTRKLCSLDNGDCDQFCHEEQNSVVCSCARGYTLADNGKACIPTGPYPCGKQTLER
Sequence of Factor X analogue with the FXIa cleavage site Asp-Phe-Thr-Arg/Val (rFX^DFTR/V) (chain, as listed by the source, chain 2 of 2): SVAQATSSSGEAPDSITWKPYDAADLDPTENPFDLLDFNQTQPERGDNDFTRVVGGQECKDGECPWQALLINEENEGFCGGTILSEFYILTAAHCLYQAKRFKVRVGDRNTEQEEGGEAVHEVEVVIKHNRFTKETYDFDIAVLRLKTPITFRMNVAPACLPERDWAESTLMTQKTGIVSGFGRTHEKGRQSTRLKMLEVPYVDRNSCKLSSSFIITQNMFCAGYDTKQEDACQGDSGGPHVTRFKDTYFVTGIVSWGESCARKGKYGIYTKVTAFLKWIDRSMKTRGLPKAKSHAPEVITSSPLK

For the substance endogenous furin of CHO cells, in series [1], the “processing of rFactor X precursor in furin containing versus furin deficient CHO clones (Western blot)” value is “rFactor X precursor is not processed in the furin deficient cells and only single chain Factor X precursor is present (FIG. 6); in contrast, rFactor X is completely processed by "normal" cells at modest expression”.
Take purified plasma FXIa: in series [2], the “activation of rFX^DFTR/V to the 35 kD and 31 kD forms (Western blot)” value was “protein bands of 35 kD and 31 kD rapidly appear after the addition of purified FXIa, but prior to the actual incubation of the cell sulture supernatant (FIG. 11, lane 3)”.
Regarding “rfurin deltaTM6xHis (CHO-rfurin cell culture supernatant)”, the “N-termini of processing products after 12 hours at 37 C with CHO-rfurin supernatant (Edman analysis)” value in series [3] is “After incubation of rFX from CHO cells (c) and CHO-FD11 cells (e) in the presence of furin, only light and heavy chains having correct N-termini are found”. In addition, in series [1], the “N-termini of processing products after 12 hours at 37 C with CHO-rfurin supernatant (Edman analysis)” value was “After incubation of rFX from CHO cells (c) and CHO-FD11 cells (e) in the presence of furin, only light and heavy chains having correct N-termini are found”; the activity (mU), FX Coatest after RVV activation, incubation 0 days turned out to be 853 mU; the activity (mU), FX Coatest after RVV activation, incubation 1 day stood at 1020 mU; the activity (mU), FX Coatest after RVV activation, incubation 2 days is 1100 mU. Further, in series [1], the activity (mU), FX Coatest after RVV activation, incubation 3 days was determined as 1140 mU; the activity (mU), FX Coatest after RVV activation, incubation 4 days was determined as 1200 mU; the functional portion of rFX (%), incubation 0 days is 61%; the functional portion of rFX (%), incubation 1 day was determined as 73%. Further, in series [1], the functional portion of rFX (%), incubation 2 days amounted to 79%; the functional portion of rFX (%), incubation 3 days stood at 81%; the functional portion of rFX (%), incubation 4 days amounted to 86%; the “processing of pro-Factor X on tentacle gel immobilized rfurin derivative (Western blot of the effluent)” value was “Processing of pro-Factor X to double chain Factor X was detected in the effluent of the column”. For the same substance, in series [1], the “processing of single chain and propeptide containing rFX (Western blot)” value is “almost complete processing already after 2 hours of incubation at 37 °C”.
